Experiment [1] concerns the target rhesus TNFα (rhesus) (UniProt P48094).
For experiment [2] the target is unchanged. The experiment can be described thus: cell-based or functional assay.
In experiment [3] the target is human TNFα (human) (UniProt P01375). Nature of the experiment: cell-based or functional assay.
For experiment [4], the target named is rhesus TNFα (rhesus) (UniProt P48094). The source holds these as a separate data set.
Experiment [5] deals with human TNFα (human) (UniProt P01375). Nature of the experiment: cell-based or functional assay. This is another data set of the same source.

The text below walks through data of patent publication US20200079844A1.

Where two headings read alike, the source gives them in different places. Bounds are passed on as bounds.

Chain of rhesus TNFα (rhesus) (P48094 77-233 limits assumed): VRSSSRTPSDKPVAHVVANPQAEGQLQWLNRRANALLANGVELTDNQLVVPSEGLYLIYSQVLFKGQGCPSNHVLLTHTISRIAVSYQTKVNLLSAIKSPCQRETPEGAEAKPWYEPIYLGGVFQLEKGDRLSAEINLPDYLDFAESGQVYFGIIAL
Chain of human TNFα (human) (P01375 77-233 limits assumed): as the sequence (P48094 77-233 limits assumed) above, with T44R, N72T, L138R counted along it

As for Enbrel (Etanercept) (Fc fusion), the EC50 (read off the curve) (as a rule, the concentration giving half of the maximal effect) in experiment [1] turned out to be 0.01 nM. For the same substance, in experiment [2], the EC50 in nM (mean); L929s + Act D cytotoxicity assay, rhesus TNFa @ 0.5 ng/ml amounted to 0.009 nM and the EC50 in nM (mean); L929s + Act D cytotoxicity assay, rhesus TNFα @ 0.5 ng/ml was 0.009 nM. Also, in experiment [3], the EC50 in nM (mean); L929s + Act D cytotoxicity assay, human TNFa @ 0.5 ng/ml was 0.009 nM; the EC50 in nM (mean); L929s + Act D cytotoxicity assay, human TNFα @ 0.5 ng/ml amounted to 0.009 nM; the EC50 in nM; alphaKYM cell assay (10000 c/w), human TNFa @ 1 ng/ml amounted to 0.04 nM; the IC50 in pM; TNFα-induced IL-6 production by RA synovial fibroblasts, donor DS534 P4 was determined as 282 pM. In experiment [3], the IC50 in pM; TNFα-induced IL-6 production by RA synovial fibroblasts, donor DS592 P4 is 324 pM; the IC50 in pM; TNFα-induced IL-6 production by RA synovial fibroblasts, donor DS605 P3 came to 309 pM; the IC50 in pM; TNFα-induced IL-6 production by RA synovial fibroblasts, donor KM05-179 P4 came out at 309 pM; the p[IC]50; TNFα-induced IL-6 production by RA synovial fibroblasts, donor DS534 P4 turned out to be 9.55. In addition, in experiment [3], the p[IC]50; TNFα-induced IL-6 production by RA synovial fibroblasts, donor DS592 P4 came out at 9.49; the p[IC]50; TNFα-induced IL-6 production by RA synovial fibroblasts, donor DS605 P3 is 9.51; the p[IC]50; TNFα-induced IL-6 production by RA synovial fibroblasts, donor KM05-179 P4 was determined as 9.51.
Take Humira (Adalimumab) (antibody): the concentration for a half-maximal effect (EC50 (read off the curve)) in experiment [1] was found to be 0.09 nM. This substance returned a concentration giving a half-maximal response (EC50 (read off the curve)) in experiment [4] of 0.1 nM. Further, in experiment [2], the EC50 in nM (mean); L929s + Act D cytotoxicity assay, rhesus TNFa @ 0.5 ng/ml was 0.071 nM and the EC50 in nM (mean); L929s + Act D cytotoxicity assay, rhesus TNFα @ 0.5 ng/ml is 0.071 nM. In experiment [3], this substance registered an EC50 in nM (mean); cytotoxicity assay, human TNFα of 0.141 nM and an EC50 in nM; alphaKYM cell assay (10000 c/w), human TNFa @ 1 ng/ml of 0.103 nM. The substance also came in with an EC50 in nM (mean); cytotoxicity assay, human TNFα in experiment [5] of 0.127 nM.
As to Remicade (Infliximab) (antibody), in experiment [2], the EC50 in nM (mean); L929s + Act D cytotoxicity assay, rhesus TNFa @ 0.5 ng/ml was over 6.7 nM and the EC50 in nM (mean); L929s + Act D cytotoxicity assay, rhesus TNFα @ 0.5 ng/ml is over 6.7 nM.
In experiment [3], ALX0071 had an IC50 in pM; TNFα-induced IL-6 production by RA synovial fibroblasts, donor DS534 P4 of 132 pM; an IC50 in pM; TNFα-induced IL-6 production by RA synovial fibroblasts, donor DS592 P4 of 363 pM; an IC50 in pM; TNFα-induced IL-6 production by RA synovial fibroblasts, donor DS605 P3 of 427 pM; an IC50 in pM; TNFα-induced IL-6 production by RA synovial fibroblasts, donor KM05-179 P4 of 537 pM. Besides, in experiment [3], the p[IC]50; TNFα-induced IL-6 production by RA synovial fibroblasts, donor DS534 P4 stood at 9.88; the p[IC]50; TNFα-induced IL-6 production by RA synovial fibroblasts, donor DS592 P4 turned out to be 9.44; the p[IC]50; TNFα-induced IL-6 production by RA synovial fibroblasts, donor DS605 P3 came out at 9.37; the p[IC]50; TNFα-induced IL-6 production by RA synovial fibroblasts, donor KM05-179 P4 is 9.27.
